Test results reported in article PMC2148113 (The Journal of Cell Biology, 1999).

Legend:
[1] = target: Flag-tagged Nodal precursor (mouse); experiment: non-reducing SDS-PAGE with immunoblot
[2] = target: the molecule itself; experiment: non-reducing SDS-PAGE with immunoblot

Flag-tagged Nodal precursor (natural protein)
stoichiometry N [1]: 2

B1: mature MycBMP4 (domain or fragment, mouse, UniProt P21275 293-408, looked up)
chain: SPKHHPQRSRKKNKNCRRHSLYVDFSDVGWNDWIVAPPGYQAFYCHGDCPFPLADHLNSTNHAIVQTLVNSVNSSIPKACCVPTELSAISMLYLDEYDKVVLKNYQEMVVEGCGCR
stoichiometry N [2]: 2
